Measured values as given in patent US20110136733A1 (IPSEN PHARMA S A S, published 2011).
Where no end group is shown, it is not given here. [ ]: non-standard residue; d: D form. The star is where a group is joined. Myristoyl = CCCCCCCCCCCCCC(=O)*; Ac6c = NC1(C(=O)O)CCCCC1; Nle = CCCC[C@H](N)C(=O)O; Orn = NCCC[C@H](N)C(=O)O; Ac5c = NC1(C(=O)O)CCCC1; Aib = CC(C)(N)C(=O)O

target: T1, human recombinant GIP receptor (human, UniProt P48546 22-466); assay: [125I]GIP competition, membranes of CHO-K1 cells expressing human GIP receptor, same conditions as Table 2
T1 construct: whole, on cells; Membranes of CHO-K1 cells expressing the receptor; also called hGIP receptor
T1 sequence (looked up): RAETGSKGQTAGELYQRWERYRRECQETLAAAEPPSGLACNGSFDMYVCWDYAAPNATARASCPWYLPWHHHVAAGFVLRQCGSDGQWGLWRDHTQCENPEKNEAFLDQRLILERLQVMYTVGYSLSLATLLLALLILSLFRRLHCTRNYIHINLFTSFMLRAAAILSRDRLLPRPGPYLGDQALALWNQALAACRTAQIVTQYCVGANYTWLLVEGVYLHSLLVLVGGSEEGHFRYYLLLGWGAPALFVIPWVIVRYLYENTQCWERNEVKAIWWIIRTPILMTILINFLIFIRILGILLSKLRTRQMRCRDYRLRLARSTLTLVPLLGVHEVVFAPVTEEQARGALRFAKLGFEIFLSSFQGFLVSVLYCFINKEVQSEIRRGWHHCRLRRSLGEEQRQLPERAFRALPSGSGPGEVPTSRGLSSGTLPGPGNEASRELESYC

With YAPGTFISDYSIAMDKIHQQDFVNWLLAQKGKKNDWKHNITQ-OH [[Pro^3]hGIP(1-42)-OH] the Ki was 171 nM.

target: T1, human recombinant GIP receptor; assay: [125I]GIP competition, membranes of CHO-K1 cells expressing human GIP receptor

YXEGTFISDYSIXXDKIHQQDFVNWLLAQK (Aib at 2 and 13; Nle at 14; C-terminal amide) [(Aib^2, 13, Nle^14)hGIP(1-30)-NH2] and Y[Aib]PGTFISDYSI[Aib][Nle]DKIHQQDFVNWLLAQK-NH2 [(Aib^2, 13, Pro^3, Nle^14)hGIP(1-30)-NH2] are within 1.5-fold of each other in Ki: 0.09 nM for the first, 0.07 nM for the second.

First: YXEGTFISDYXIAXDKIHQQDFVNWLLAQK (Aib at 2; A5c at 11; Nle at 14; C-terminal amide) [(Aib^2, A5c^11, Nle^14)hGIP(1-30)-NH2]
Second: YXEGTFXSDYSIAXDKIHQQDFVNWLLAQKGKKNDWKHNITQ (Aib at 2; A6c at 7 and 14; C-terminal free acid) [(Aib^2, A6c^7, 14)hGIP(1-42)-OH]
The Ki of the first is 5.2-fold lower: 0.16 nM for the first, 0.83 nM for the second.

Compared with YXEGTFXSDYSIAMDKIHQQDFVNWLLAQK (Aib at 2; A6c at 7; C-terminal amide) [(Aib^2, A6c^7)hGIP(1-30)-NH2], YXEGTFISDYXIAMDKIHQQDFVNWLLAQKGKKNDWKHNITQ (Aib at 2; A5c at 11; C-terminal free acid) [(Aib^2, A5c^11)hGIP(1-42)-OH] is 2.7-fold higher in Ki: 0.03 nM for the first, 0.08 nM for the second. The first binds more tightly here.

YXEGTFISDYXIAXDKIHQQDFVNWLLAQKGKKNDWKHNITQ (Aib at 2; A5c at 11; Nle at 14; C-terminal free acid) [(Aib^2, A5c^11, Nle^14)hGIP(1-42)-OH] and Y[Aib]EGTF[Ac6c]SDYSIA[Nle]DKIHQQDFVNWLLAQKGKKNDWKHNITQ-OH [(Aib^2, A6c^7, Nle^14)hGIP(1-42)-OH] are within 1.5-fold of each other in Ki: 0.43 nM for the first, 0.45 nM for the second.

First: YXEGTFXSDYSIAXDKIHQQDFVNWLLAQKGKKNDWKHNITQ (A5c at 2 and 7; A6c at 14; C-terminal free acid) [(A5c^2, 7, A6c^14)hGIP(1-42)-OH]
Second: YXEGTFISDYSIXXDKIHQQDFVNWLLAQKGKKNDWKHNITQ (Aib at 2 and 13; Nle at 14; C-terminal free acid) [(Aib^2, 13, Nle^14)hGIP(1-42)-OH]
The Ki of the first is 690-fold higher: 34.4 nM for the first, 0.05 nM for the second.

First: Y[Aib]EGTF[Ac5c]SDYSIA[Nle]DKIHQQDFVNWLLAQKGKKNDWKHNITQ-OH [(Aib^2, A5c^7, Nle^14)hGIP(1-42)-OH]
Second: Y[Aib]EG[Ac5c]FISDYSIAMDKIHQQDFVNWLLAQKGKKNDWKHNITQ-OH [(Aib^2, A5c^5)hGIP(1-42)-OH]
The Ki of the first is 3.3-fold lower: 0.69 nM for the first, 2.26 nM for the second. The first binds more tightly here.

YXEGTFXSDYSIAXDKIHQQDFVNWLLAQKGKKNDWKHNITQ (Aib at 2; A5c at 7 and 14; C-terminal free acid) [(Aib^2, A5c^7, 14)hGIP(1-42)-OH] and YXEGTFISDYXIAXDKIHQQDFVNWLLAQKGKKNDWKHNITQ (Aib at 2; A5c at 11; A6c at 14; C-terminal free acid) [(Aib^2, A5c^11, A6c^14)hGIP(1-42)-OH] are within 1.5-fold of each other in Ki: 0.22 nM for the first, 0.18 nM for the second.

First: YAPGTFISDYSIXXDKIHQQDFVNWLLAQKGKKNDWKHNITQ (Aib at 13; Nle at 14; C-terminal free acid) [(Pro^3, Aib^13, Nle^14)hGIP(1-42)-OH]
Second: YAXGTFISDYSIXXDKIHQQDFVNWLLAQKGKKNDWKHNITQ (hPro at 3; Aib at 13; Nle at 14; C-terminal free acid) [(hPro^3, Aib^13, Nle^14)hGIP(1-42)-OH]
The Ki of the first is 2-fold higher: 667 nM for the first, 330 nM for the second.

Compared with YAXGTFISDYSIXXDKIHQQDFVNWLLAQKGKKNDWKHNITQ (Dhp at 3; Aib at 13; Nle at 14; C-terminal free acid) [(Dhp^3, Aib^13, Nle^14)hGIP(1-42)-OH], Y[Aib]EGTF[Ac5c]SDYSIAMDKIHQQDFVNWLLAQKGKKNDWKHNITQ-OH [(Aib^2, A5c^7)hGIP(1-42)-OH] is 1800-fold lower in Ki: 727 nM for the first, 0.41 nM for the second.

First: YAXGTFISDYXIAMDKIHQQDFVNWLLAQKGKKNDWKHNITQ (Tic at 3; A5c at 11; C-terminal free acid) [(Tic^3, A5c^11)hGIP(1-42)-OH]
Second: YAXGTFISDYSIAXDKIHQQDFVNWLLAQKGKKNDWKHNITQ (4Hyp at 3; A6c at 14; C-terminal free acid) [(4Hyp^3, A6c^14)hGIP(1-42)-OH]
The Ki of the first is 1.8-fold lower: 503 nM for the first, 910 nM for the second. The first binds more tightly here.

Compared with YAXGTFISDYXIAXDKIHQQDFVNWLLAQKGKKNDWKHNITQ (Tic at 3; A5c at 11; A6c at 14; C-terminal free acid) [(Tic^3, A5c^11, A6c^14)hGIP(1-42)-OH], YAPGTFISDYSIAXDKIHQQDFVNWLLAQKGKKNDWKHNITQ (A6c at 14; C-terminal free acid) [(Pro^3, A6c^14)hGIP(1-42)-OH] is 3.5-fold lower in Ki: 754 nM for the first, 214 nM for the second. The second binds more tightly here.

First: Y[Aib]EGTF[Ac6c]SDYSIAMDKIHQQDFVNWLLAQKGKKNDWKHNITQQ-OH [(Aib^2, A6c^7, Gln^43)hGIP(1-43)-OH]
Second: YXEGTFISDYSXAMDKIHQQDFVNWLLAQKGKKNDWKHNITQ (Aib at 2; A5c at 12; C-terminal free acid) [(Aib^2, A5c^12)hGIP(1-42)-OH]
The Ki of the first is 1.8-fold lower: 0.94 nM for the first, 1.65 nM for the second. The first binds more tightly here.

Compared with YAPGTFISDYXIAMDKIHQQDFVNWLLAQK (A5c at 11; C-terminal amide) [(Pro^3, A5c^11)hGIP(1-30)-NH2], XAEGTFISDYSIXMDKIHQQDFVNWLLAQKGKKNDWKHNITQ (4Hppa (3-(4-hydroxyphenyl)propionic acid) at 1; Aib at 13; C-terminal free acid) [(4Hppa^1, Aib^13)hGIP(1-42)-OH] is 29-fold lower in Ki: 65.8 nM for the first, 2.25 nM for the second.

Going from YAPGTFISDYXIAXDKIHQQDFVNWLLAQKGKKNDWKHNITQ (A5c at 11; A6c at 14; C-terminal free acid) [(Pro^3, A5c^11, A6c^14)hGIP(1-42)-OH] to [Orn](Myristoyl)AEGTF[Ac6c]SDYSIAMDKIHQQDFVNWLLAQKGKKNDWKHNITQ-OH [[Orn^1(N-C(O)-(CH2)12-CH3), A6c^7]hGIP(1-42)-OH], the Ki falls from 648 nM to 21.5 nM (30-fold).

First: YAEGTFISDYXIAMDKIHQQDFVNWLLAQKGKKNDWKHNXTQ (D-Ala at 2; A5c at 11 and 40; C-terminal free acid, X stands for the non-natural residue) [(D-Ala^2, A5c^11,40)hGIP(1-42)-OH]
Second: YXEGTFISDYSXAMDKIHQQDFVNWLLAQKGKKNDWKHNITQ (Aib at 2 and 12; C-terminal free acid) [(Aib^2, 12)hGIP(1-42)-OH]
The Ki of the first is 8.4-fold lower: 0.59 nM for the first, 4.98 nM for the second.

First: YAEGTFISDYXIAMDKIHQQDFVNWLLAQKGKKNDWKHNITQH (D-Ala at 2; A5c at 11; C-terminal free acid, X stands for the non-natural residue) [(D-Ala^2, A5c^11, His^43)hGIP(1-43)-OH]
Second: YGEGTFISDYXIAMDKIHQQDFVNWLLAQKGKKNDWKHNITQH (A5c at 11; C-terminal free acid) [(Gly^2, A5c^11, His^43)hGIP(1-43)-OH]
The Ki of the first is 1.7-fold lower: 0.56 nM for the first, 0.97 nM for the second.

Going from YAEGTFISDYXIAMDKIHQQDFVNWLLAQKGKKNDWKHNIXQ (D-Ala at 2; A5c at 11 and 41; C-terminal free acid, X stands for the non-natural residue) [(D-Ala^2, A5c^11, 41)hGIP(1-42)-OH] to YAEGTFISDYXIAXDKIHQQDFVNWLLAQKGKKNDWKHNIXQ (D-Ala at 2; A6c at 11, 14 and 41; C-terminal free acid, X stands for the non-natural residue) [(D-Ala^2, A6c^11, 14, 41)hGIP(1-42)-OH], the Ki rises from 0.36 nM to 6.67 nM (19-fold). The first binds more tightly here.

Binder XXEGTFISDYXIAXDKIHQQDFVNWLLAQKGKKNDWKHNITQ (NMe-Tyr at 1; Aib at 2; A5c at 11; Nle at 14; C-terminal free acid) [(NMe-Tyr^1, Aib^2, A5c^11, Nle^14)hGIP(1-42)-OH] has a Ki of 0.19 nM.
